Reference: article PMC7744274
Values joined by “and” are separate entries in the source; they are usually repeats but may differ in a detail not shown here. Equal entries are not always repeated.

Target: SARS-CoV-2 S glycoprotein, prefusion S ectodomain (trimeric SARS-CoV-2 spike) (SARS-CoV-2 | bacteriophage T4) (UniProt P0DTC2)
Assay: SPR; Biacore T200; SARS-CoV-2 S (50 ug/ml) captured on Ni2+-loaded NTA chip; ACE2 (His-Tag removed) as analyte, 200 nM to 3.125 nM in triplicate, 50 uL/min, HBS P+ buffer; association 300 s, dissociation 600 s; 1:1 binding model

WT soluble ACE2 treated with alpha2-3,6,8 sialidase (from UniProt Q9BYF1 18-626) (domain or fragment)
decrease of KD against WT ACE2: 30 % lower

soluble ACE2 expressed in the presence of 20 uM kifunensine (Kif ACE2) (from UniProt Q9BYF1 18-626) (domain or fragment)
increase of KD against WT ACE2: 50%

soluble recombinant ACE2 ectodomain, un-engineered (wild-type form, WT) (from UniProt Q9BYF1 18-626) (domain or fragment)
Kd: 50 to 100 nM and 76 nM
